Measurements from article PMC2782368 (Journal of molecular biology, 2009).
Substitutions are numbered along the chain they refer to. Blank lines part the entries; values can stand above or below the binder they belong to.

How the values were obtained:
[1] = biological target: T1, murine core RAG1 fused to maltose-binding protein, wild type (murine), P15919; assay: SEC; details: remark: other sources report otherwise
T1 chain: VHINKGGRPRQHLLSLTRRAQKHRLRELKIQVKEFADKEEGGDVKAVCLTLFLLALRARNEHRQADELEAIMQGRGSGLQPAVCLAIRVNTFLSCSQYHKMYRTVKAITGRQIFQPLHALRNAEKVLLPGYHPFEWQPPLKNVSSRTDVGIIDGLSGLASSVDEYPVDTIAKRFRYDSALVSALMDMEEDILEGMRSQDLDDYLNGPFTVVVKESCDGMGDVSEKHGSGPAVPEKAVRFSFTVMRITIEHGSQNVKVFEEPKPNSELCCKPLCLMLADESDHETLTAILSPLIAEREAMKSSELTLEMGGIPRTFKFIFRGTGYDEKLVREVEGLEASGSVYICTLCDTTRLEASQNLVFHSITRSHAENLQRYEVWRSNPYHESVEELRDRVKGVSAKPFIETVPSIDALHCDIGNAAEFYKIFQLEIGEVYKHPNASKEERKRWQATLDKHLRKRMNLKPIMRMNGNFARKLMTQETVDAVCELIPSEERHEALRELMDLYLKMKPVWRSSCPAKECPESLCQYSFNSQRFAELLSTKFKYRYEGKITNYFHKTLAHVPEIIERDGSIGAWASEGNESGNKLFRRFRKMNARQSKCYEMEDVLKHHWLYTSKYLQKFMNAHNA

[2] = biological target: T2, murine core RAG1 fused to maltose-binding protein, wild type (murine, UniProt P15919 384-1008); assay: pull-down
T2 sequence (looked up): T1 chain

[3] = biological target: T3, mR1(core) H937A mutant (murine, UniProt P15919 384-1008, H937A); assay: pull-down
T3 sequence (looked up): T1 chain with H554A

[4] = biological target: T4, mR1(core) H942A mutant (murine, UniProt P15919 384-1008, H942A); assay: pull-down
T4 sequence (looked up): T1 chain with H559A

[5] = biological target: T5, mR1(core) E962A mutant (murine, UniProt P15919 384-1008, E962A); assay: pull-down
T5 sequence (looked up): T1 chain with E579A

stoichiometry N [1]: 2
B1: murine core RAG1 fused to maltose-binding protein, wild type, P15919 384-1008 (domain or fragment)
chain: T1 chain

binding result [2]: binds | binding result [3]: binds | binding result [4]: binds | binding result [5]: binds
B2: core RAG2 fused to glutathione S-transferase (domain or fragment, murine, UniProt P21784 1-387, looked up)
chain: MSLQMVTVGHNIALIQPGFSLMNFDGQVFFFGQKGWPKRSCPTGVFHFDIKQNHLKLKPAIFSKDSCYLPPLRYPATCSYKGSIDSDKHQYIIHGGKTPNNELSDKIYIMSVACKNNKKVTFRCTEKDLVGDVPEPRYGHSIDVVYSRGKSMGVLFGGRSYMPSTQRTTEKWNSVADCLPHVFLIDFEFGCATSYILPELQDGLSFHVSIARNDTVYILGGHSLASNIRPANLYRIRVDLPLGTPAVNCTVLPGGISVSSAILTQTNNDEFVIVGGYQLENQKRMVCSLVSLGDNTIEISEMETPDWTSDIKHSKIWFGSNMGNGTIFLGIPGDNKQAMSEAFYFYTLRCSEEDLSEDQKIVSNSQTSTEDPGDSTPFEDSEEFCFS
